Results as given in article PMC8097335, “A High‐Affinity Calmodulin‐Binding Site in the CyaA Toxin Translocation Domain is Essential for Invasion of Eukaryotic Cells” (Advanced Science, 2021).

Biological target: T1, calmodulin (calcium-loaded: holo-CaM) (UniProt P0DP23)
T1 construct: also called apo-CaM (without calcium)
Assay: other fluorescence titration + ITC
Settings: both partners purified

ASAHWGQRALQGAQAVAAAQRLVSAAALMTQ [P454 H477S-I479A peptide]
fold decrease of affinity for CaM against P454: ~20 fold

ASAHAGQRAAQGAQAVAAAQRLVHAIALMTQ [P454 W458A-L463A peptide]
fold decrease of affinity for CaM against P454: 4 fold

ASAHWGQEALQGAQAVAAAQELVHAIALMTQ (also called TAMRA-P454 R12E) [P454 R12E peptide (P454 with R461E and R474E)]
Kd: 22.7 µM

ASAHWGQRALQGAQAVAAAQRAVSAAALMTQ [P454 L475A-H477S-I479A peptide]
fold decrease of affinity for CaM against P454: ~20 fold
